Results: publication PMC7027792, “Phenylalanine meta‐Hydroxylase: A Single Residue Mediates Mechanistic Control of Aromatic Amino Acid Hydroxylation” (Chembiochem, 2019)

Columns and labels:
[1] = molecular target: T1, Phe3H (phenylalanine 3-hydroxylase) (Streptomyces coeruleorubidus, UniProt F5BFC8); experiment: steady-state inhibition kinetics of hydroxylation; assay type: biochemical
T1 construct: gene pacX; purified Phe3H
Description: steady-state inhibition kinetics of hydroxylation on […]

purified protein [2] = substrate: CC1Nc2nc(N)[nH]c(=O)c2NC1C; experiment: purified protein; assay type: biochemical, Streptomyces coeruleorubidus; details: pterin varied, fixed L-Phe, pH 8, 28 °C, varied: cofactor
purified protein [3] = substrate: NC(Cc1ccc(F)cc1)C(=O)O; experiment: purified protein; assay type: biochemical, Streptomyces coeruleorubidus; details: fixed 6MPH4 cofactor, racemic substrate, pH 8, 28 °C
purified protein [4] = substrate: NC(Cc1ccccc1F)C(=O)O; experiment: purified protein; assay type: biochemical, Streptomyces coeruleorubidus; details: fixed 6MPH4 cofactor, racemic substrate, pH 8, 28 °C
purified protein [5] = substrate: N[C@@H](Cc1ccccc1)C(=O)O; experiment: purified protein; assay type: biochemical, Streptomyces coeruleorubidus
[6] = fixed 6MPH4 cofactor, labelled compound, pH 8, 28 °C
[7] = fixed 6MPH4 cofactor, pH 8, 28 °C
[8] = pterin cofactor (6MPH4 for wild type), labelled compound
[9] = pterin cofactor (6MPH4 for wild type), optimised assay conditions

`NC(Cc1cccc(F)c1)C(=O)O` (racemic) [3F‐Phe] showed a Ki [1] of 800 µM.

B1: Phe3H (phenylalanine 3-hydroxylase) (Streptomyces coeruleorubidus) (protein)
chain: MQGPHAQMTDAAYEIRRSEIAALSTDLAPEDPIPVVEYTEWEHEVWRTVCVDLTARHRTDAAAEYLESAEQLAVPLDHVPQLRDVSGRLGSISGFTFQSAPALVPLREFCGGLANSVFHSTQYLRHPRSPFYTEDPDLLHDLVGHGNVLASDRFARLYRLAGNAAARVHSTEALQFIGKVFWFTLECGVVRERGERKAYGATLVSSYGELDHFRSADFRPLDIKSLADVEYDISTYQPILFEADSMDEVEDTVGSFWDTCDDDSIAALLGGTSRSVTPH
notes: purified Phe3H
In the case of B1, the Km (purified protein [2]) is reported as 98 ± 10 µM, the kcat (purified protein [2]) is reported as 1.3 ± 0.05 s⁻¹ and the kcat/Km (purified protein [2]) is reported as 13300 ± 650 M⁻¹ s⁻¹. For the same molecule, the Km (purified protein [3]) was 230 ± 60 µM, the kcat (purified protein [3]) was 0.233 ± 0.00833 s⁻¹ and the kcat/Km (purified protein [3]) was 1050 ± 107 M⁻¹ s⁻¹. The Km (purified protein [4]) was 1900 ± 100 µM, the kcat (purified protein [4]) was 0.167 ± 0.00333 s⁻¹ and the kcat/Km (purified protein [4]) was 88.3 ± 2 M⁻¹ s⁻¹. The Km (purified protein [5]; [6]) was 540 ± 70 µM, the kcat (purified protein [5]; [6]) was 0.567 ± 0.0167 s⁻¹ and the kcat/Km (purified protein [5]; [6]) was 1050 ± 48.3 M⁻¹ s⁻¹. For the same molecule, the Km (purified protein [5]; [7]) was 400 ± 60 µM, the kcat (purified protein [5]; [7]) was 0.633 ± 0.0333 s⁻¹ and the kcat/Km (purified protein [5]; [7]) was 1580 ± 118 M⁻¹ s⁻¹.

B2: Phe3H (phenylalanine 3-hydroxylase) (Streptomyces coeruleorubidus; C187A) (protein)
chain: MQGPHAQMTDAAYEIRRSEIAALSTDLAPEDPIPVVEYTEWEHEVWRTVCVDLTARHRTDAAAEYLESAEQLAVPLDHVPQLRDVSGRLGSISGFTFQSAPALVPLREFCGGLANSVFHSTQYLRHPRSPFYTEDPDLLHDLVGHGNVLASDRFARLYRLAGNAAARVHSTEALQFIGKVFWFTLEAGVVRERGERKAYGATLVSSYGELDHFRSADFRPLDIKSLADVEYDISTYQPILFEADSMDEVEDTVGSFWDTCDDDSIAALLGGTSRSVTPH
notes: purified Phe3H
B2 was tested, and the Km (purified protein [5]; [8]) was 130 ± 30 µM, the kcat (purified protein [5]; [8]) was 0.217 ± 0.00667 s⁻¹ and the Km (purified protein [5]; [9]) was 100 ± 10 µM. For the same molecule, the kcat (purified protein [5]; [9]) was 0.283 ± 0.005 s⁻¹.

B3: Phe3H (phenylalanine 3-hydroxylase) (Streptomyces coeruleorubidus; T202S) (protein)
chain: MQGPHAQMTDAAYEIRRSEIAALSTDLAPEDPIPVVEYTEWEHEVWRTVCVDLTARHRTDAAAEYLESAEQLAVPLDHVPQLRDVSGRLGSISGFTFQSAPALVPLREFCGGLANSVFHSTQYLRHPRSPFYTEDPDLLHDLVGHGNVLASDRFARLYRLAGNAAARVHSTEALQFIGKVFWFTLECGVVRERGERKAYGASLVSSYGELDHFRSADFRPLDIKSLADVEYDISTYQPILFEADSMDEVEDTVGSFWDTCDDDSIAALLGGTSRSVTPH
notes: purified Phe3H
Molecule B3 has a Km (purified protein [5]; [8]) of 400 ± 300 µM, a kcat (purified protein [5]; [8]) of 0.217 ± 0.0667 s⁻¹ and a Km (purified protein [5]; [9]) of 500 ± 200 µM. For the same molecule, the kcat (purified protein [5]; [9]) was 0.433 ± 0.0833 s⁻¹.
